The text below walks through data of patent US20130064835A1, “RAGE REGULATES ROCK ACTIVITY IN CARDIOVASCULAR DISEASE” (priority 2009, published 2013).

Test [1] deals with vascular smooth muscle cells. The experiment in a line: Smooth muscle cell proliferation assay (tritiated thymidine incorporation). The conditions noted are these: for SMC proliferation on incubation with stimulant: FIG. 8A; for S100B-stimulated SMC proliferation in presence of inhibitor: preincubation with agent (Y27632 10 μM, fasudil 10 μM, anti-Tgf-β2 IgG 10 μg/ml vs IgG control), FIGS. 8C, 8E. It is filed as cell-based, mice. Here is the method:
(§1) Wild-type and RAGE null mice vascular smooth muscle cells were isolated and cultured from the aorta and employed through passage 5 to 7. Migration assays were performed using the QCM Colorimetric Cell Migration Assay (Chemicon). Cells (3×10^5/well) were seeded into the upper chambers fitted with a lower 8 μm porous polycarbonate membrane, and the insert was placed in the lower chamber of a 24-well dish containing Dulbeccos' modified Eagle medium and no stimulant, S100B (10 μg/ml; generously provided by Dr. Guenter Fritz), Tgf-β2 (10 ng/ml; R&D Systems), or PDGF (10 ng/ml; R&D Systems) and incubated at 37° C. for 5 hrs and relative migration was measured according to the manufacturer's instructions. In experiments using anti-Tgf-β2 IgG and nonimmune IgG (10 μg/ml, both from Santa Cruz Biotechnology, Santa Cruz, Calif.), Y27632 (10 μM, Sigma Aldrich) and fasudil hydrochloride (10 μM, Tocris Bioscience, Ellisville Mo.) cells were preincubated with these agents or vehicle alone for 2 hrs in the case of antibodies and 30 mins in the case of Y27632 or fasudil at 37° C. prior to the addition to the chemotaxis chambers. Proliferation of cultured SMCs was quantified by measurement of incorporation of tritiated thymidine. SMCs were seeded at a density of 2×10^4 cells/wells in 24-well tissue culture-treated plates and incubated in serum-free DMEM for 16 hrs. Following a 2 hr preincubation with the indicated concentration of anti-Tgf-β2, nonimmune IgG, Y27632 or fasudil, cells were exposed to serum-free DMEM containing the indicated concentration of S100B or PDGF (10 ng/ml) along with 3H-thymidine (1 μCi/well). After the incubation period, cells were harvested 48 hrs later, and cellular proliferation was determined based on the incorporation of tritiated thymidine. Cell counting was performed and confirmed that increased trititated thymidine incorporation reflected an increase in cell number.
For orientation: Incorporation of labelled thymidine or its analogues reports DNA synthesis.

Test [2] concerns vascular smooth muscle cells. The experiment in a line: Smooth muscle cell migration assay (QCM Colorimetric Cell Migration Assay). It is filed as cell-based, mice. The conditions noted are these: S100B 10 μg/ml; for SMC migration on incubation with stimulant: Tgf-β2 10 ng/ml, PDGF 10 ng/ml, FIG. 8B; for S100B-stimulated SMC migration in presence of inhibitor: preincubation with agent (Y27632 10 μM, fasudil 10 μM, anti-Tgf-β2 IgG 10 μg/ml vs IgG control), FIGS. 8D, 8F. Here is the method:
as §1

Another test has as its system ROCK1. The test can be described thus: ROCK1 activity assay (MYPT1 phosphorylation) on lysates of aorta or primary aortic SMCs. The conditions noted are these: S100B 10 μg/ml, FIG. 5B. The class given is cell-based, murine. As to the method:
Activation of ROCK1 was evaluated on lysates of aorta or primary murine aortic smooth muscle cells retrieved from wild-type or RAGE null mice. In the latter case, SMCs were stimulated with S100B (10 μg/ml for the indicated times and subjected to ROCK1 activity assays (7-8). Aortas or SMCs were lysed using a Triton X-100 lysis buffer containing 50 mM Tris (pH 7.5), 10 mM MgCl2, 0.5 M NaCl and 1% Triton X-100. The samples were incubated with Anti-ROCK1 antibody described above for 1 hr further with Protein G coated agarose beads for overnight at 4° C., and the beads were washed three times with lysis buffer. The amount of ROCK1 associated with the beads was incubated with 50 μl kinase buffer, 1 μl 10 mM ATP (Cell Signalling) and 0.5 μg […] myosin phosphatase-1 (MYPT1)/protein phosphatase-1 regulatory (inhibitor) subunit 12A (Ppplrl2a) substrate (Upstate Biotech) at […] for 30 min. Reaction was stopped by adding sample buffer, boiled for 5 min and the amount of phosphorylated MYPT1 was examined by immunoblotting using ThrB50-phosphorylation specific antibody 36-003 (Upstate Biotechnology). […] Equal quantities of ROCK1 were treated with equal quantities of MYPT1/Ppp1r12a. Relative absorbances were measured as described above, and these were used to determine the relative activation of ROCK1. […]

Regarding PDGF [reference compound], the “SMC proliferation on incubation with stimulant” value (shortened to “SMC proliferation on incubation”) in test [1] (RAGE-deficient SMCs) and in test [1] (wild-type SMCs) was “increased” throughout. Further, the “SMC migration on incubation with stimulant” value (shortened to “SMC migration on incubation”) in test [2] (RAGE-deficient SMCs) and in test [2] (wild-type SMCs) was “increased” each time.

On to `C[C@@H](N)[C@H]1CC[C@H](C(=O)Nc2ccncc2)CC1` [Y27632, reference compound], for which the “S100B-stimulated SMC proliferation in presence of inhibitor” value in test [1] (wild-type SMCs) is recorded as “significantly reduced”. In addition, the “S100B-stimulated SMC migration in presence of inhibitor” value in test [2] (wild-type SMCs) is “significantly reduced”.

Consider `O=S(=O)(c1cccc2cnccc12)N1CCCNCC1` [fasudil, 5-(1,4-diazepane-1-sulfonyl)isoquinoline, reference compound], for which, in test [1] (wild-type SMCs), the “S100B-stimulated SMC proliferation in presence of inhibitor” value was “significantly reduced”. In addition, the “S100B-stimulated SMC migration in presence of inhibitor” value in test [2] (wild-type SMCs) was “significantly reduced”.

B1: S100B: RAGE ligand S100B (protein, UniProt P04271 2-92, looked up)
Protein S100-B: SELEKAMVALIDVFHQYSGREGDKHKLKKSELKELINNELSHFLEEIKEQEVVDKVMETLDNDGDGECDFQEFMAFVAMVTTACHEFFEHE
For B1, the results for the “SMC proliferation on incubation” value in test [1] (RAGE-deficient SMCs) and in test [1] (wild-type SMCs) were “failed to stimulate” and “significantly increased”, respectively. Besides, the “ROCK1 activity upon incubation with RAGE ligand” value was “failed to increase ROCK1 activity” in the test on ROCK1 (SMCs from RAGE null mice) and “increased ROCK1 activity” in the test with ROCK1 (primary aortic SMCs from wild-type mice). Further, the “SMC migration on incubation” value in test [2] (RAGE-deficient SMCs) is recorded as “failed to stimulate”; in test [2] (wild-type SMCs), “significantly increased”.

B2: Tgf-β2: Tgf-β2 (R&D Systems), used as SMC stimulant (protein)
chain: ALDAAYCFRNVQDNCCLRPLYIDFKRDLGWKWIHEPKGYNANFCAGACPYLWSSDTQHTKVLSLYNTINPEASASPCCVSQDLEPLTILYYIGNTPKIEQLSNMIVKSCKCS
With B2, the “SMC proliferation on incubation” value in test [1] (RAGE-deficient SMCs) and in test [1] (wild-type SMCs) was “increased” each time. Also, the “SMC migration on incubation” value in test [2] (RAGE-deficient SMCs) and in test [2] (wild-type SMCs) was “increased” in each case.
